Experimental findings from publication PMC4802596, “Using the β-glucosidase catalyzed reaction product glucose to improve the ionic liquid tolerance of β-glucosidases” (Biotechnology for Biofuels, 2016) are described below.

Data set [1] deals with O=[N+]([O-])c1ccc(O[C@@H]2O[C@H](CO)[C@@H](O)[C@H](O)[C@H]2O)cc1. In words: purified protein. The settings on record: 50 mM potassium phosphate pH 7.2, 52 °C, 5 min, text b17 prints a different Km than Tables 1-3.
The test system of data set [2] is O=[N+]([O-])c1ccc(O[C@@H]2O[C@H](CO)[C@H](O)[C@H](O)[C@H]2O)cc1. Description: purified protein. The note with it: 50 mM potassium phosphate pH 7.2, 52 °C, 5 min.

H0HC94 (Agrobacterium tumefaciens 5A): in data set [1], the Michaelis constant (Km) is 3.09 ± 0.40 mM, the kcat came to 278 ± 4 s⁻¹ and the kcat/Km worked out at 89900 M⁻¹ s⁻¹. Moreover, in data set [2], the Km is 12.93 ± 2.00 mM, the kcat turned out to be 215 ± 7 s⁻¹ and the kcat/Km came out at 16600 M⁻¹ s⁻¹.

As a reminder, the Km is the substrate concentration at which the rate is half of its maximum. The kcat is the number of substrate molecules converted per active site and unit of time at saturation. As a reminder, the kcat/Km is the second-order rate constant that governs catalysis at low substrate concentration.
